Test results as given in patent publication US20030125311A1, “Compounds capable of binding with the cytoskeleton” (priority 2002, published 2003).

B1: Ribonuclease A: hydrolytic enzyme (Sigma-Aldrich) used to treat cytosol (protein, UniProt P61823 27-150, looked up)
Ribonuclease pancreatic: KETAAAKFERQHMDSSTSAASSSNYCNQMMKSRNLTKDRCKPVNTFVHESLADVQAVCSQKNVACKNGQTNCYQSYSTMSITDCRETGSSKYPNCAYKTTQANKHIIVACEGNPYVPVHFDASV
B2: Proteinase K: hydrolytic enzyme (Merck) used to treat cytosol (protein, UniProt P06873 106-384, looked up)
Proteinase K: AAQTNAPWGLARISSTSPGTSTYYYDESAGQGSCVYVIDTGIEASHPEFEGRAQMVKTYYYSSRDGNGHGTHCAGTVGSRTYGVAKKTQLFGVKVLDDNGSGQYSTIIAGMDFVASDKNNRNCPKGVVASLSLGGGYSSSVNSAAARLQSSGVMVAVAAGNNNADARNYSPASEPSVCTVGASDRYDRRSSFSNYGSVLDIFGPGTSILSTWIGGSTRSISGTSMATPHVAGLAAYLMTLGKTTAASACRYIADTANKGDLSNIPFGTVNLLAYNNYQA

System: binding sites of PREG [3H] in brain cytosol
Test: Effects of hydrolytic enzymes on the binding of PREG [3H] in cytosol
Parameters: species or system rat
Conditions: for % of Control (binding of PREG [3H]): cytosol incubated with enzyme at 37° C. for 30 min, mean±standard error, n=3
Method: Proteinase K (Merck, Darmstadt, Germany) and Pronase® are dissolved at 1 mg/ml in TNM buffer containing 10 mM of Tris, 0.1M of NaCl, 3 mM of MgCl2 (pH 7.4). Deoxyribonuclease I and ribonuclease A are products of Sigma-Aldrich and are respectively adjusted to 100 IU/ml and 5 IU/ml. Phospholipase A2 (Roche Molecular Biochemicals) is diluted to 20 IU/ml in TNM.
1 ml of brain cytosol is incubated with 0.2 ml of an enzyme solution at 37° C. for 30 min. The binding activity is studied of samples (0.2 ml) which had undergone the enzyme treatment or control samples diluted with buffer only.
To study the effects of hydrolytic enzymes on the binding of PREG [^3H], samples of 1 ml of cytosol incubated with 0.2 ml of an enzyme solution at 37° C. for 30 min were used. The results obtained, expressed as % of the control incubation (cytosol diluted in a buffer) are reported in Table 1 (mean±standard error, n=3).

Molecule | % of Control (binding of PREG [3H]) [%] | effect on binding sites of PREG [3H] (in words) (enzyme treatment of cytosol) | binding sites of PREG [3H] destroyed (enzyme treatment of cytosol) [%]
B1 | 82.4 ± 9.2 | no significant effect | 
B2 | 42.4 ± 7.5 |  | 60
